According to US20220073608A1 (JIANGSU HUAIYU PHARMACEUTICAL, published 2022):
Positions count from the first letter of the chain named. Each block holds one binder with its values, some of them ahead of it.

Columns and labels:
[1] = biological target: T1, mouse SEMA4D, full length, on CHO-K1 cells (CHO-K1 mSEMA4D) (mouse, UniProt O09126 24-861); assay: FACS, CHO-K1 mSEMA4D cells; Ab 0.0213 nM
T1 construct: whole, on cells; also called murine SEMA4D recombinant cells
T1 sequence (looked up): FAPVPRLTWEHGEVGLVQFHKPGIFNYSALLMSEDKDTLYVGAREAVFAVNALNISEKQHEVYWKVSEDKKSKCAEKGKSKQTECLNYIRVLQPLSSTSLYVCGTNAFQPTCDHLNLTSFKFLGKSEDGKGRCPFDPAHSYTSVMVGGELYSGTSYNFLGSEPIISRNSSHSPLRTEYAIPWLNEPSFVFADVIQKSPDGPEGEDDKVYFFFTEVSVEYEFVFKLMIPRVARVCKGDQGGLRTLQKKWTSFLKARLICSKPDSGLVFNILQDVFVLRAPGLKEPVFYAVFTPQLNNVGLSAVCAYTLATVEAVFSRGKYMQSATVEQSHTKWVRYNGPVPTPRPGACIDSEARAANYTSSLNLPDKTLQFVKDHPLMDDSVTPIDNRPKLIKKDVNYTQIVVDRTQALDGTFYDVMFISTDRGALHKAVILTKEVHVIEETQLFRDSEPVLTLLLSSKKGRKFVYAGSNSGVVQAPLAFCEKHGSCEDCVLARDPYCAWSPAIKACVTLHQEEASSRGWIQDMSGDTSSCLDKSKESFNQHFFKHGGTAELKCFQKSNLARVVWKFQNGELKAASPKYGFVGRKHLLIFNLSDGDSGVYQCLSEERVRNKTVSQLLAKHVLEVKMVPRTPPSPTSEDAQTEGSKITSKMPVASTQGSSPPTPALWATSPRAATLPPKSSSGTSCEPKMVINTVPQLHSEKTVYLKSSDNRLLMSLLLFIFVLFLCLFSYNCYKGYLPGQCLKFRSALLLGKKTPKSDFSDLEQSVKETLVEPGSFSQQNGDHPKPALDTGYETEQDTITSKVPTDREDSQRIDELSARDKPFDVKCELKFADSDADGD
Experimental: (§1) After the cells were counted, they were diluted with PBS to 2×10⁶ cells per milliliter. After washing, 100 μL of diluted and purified leading antibodies was added to each well and the plate was incubated for 1 hour on ice. […] Cells were washed 2 times by centrifugation with FACS buffer. The cells were suspended with 200 μL of FACS buffer, FACS (FACS Verse, purchased from BD) was used to detect and analyze the results.

[2] = biological target: T1, mouse SEMA4D, full length, on CHO-K1 …; assay: FACS, CHO-K1 mSEMA4D cells; Ab 66.7 nM
Experimental: as §1

[3] = biological target: T2, monkey SEMA4D, full length, on CHO-K1 cells (CHO-K1 cSEMA4D) (monkey); assay: FACS, CHO-K1 cSEMA4D cells; Ab 0.0213 nM
T2 construct: whole, on cells; also called monkey SEMA4D recombinant cells
Experimental: as §1

[4] = biological target: T3, human SEMA4D, full length, on CHO-K1 cells (CHO-K1 hSEMA4D) (human, UniProt Q92854 22-862); assay: FACS, CHO-K1 hSEMA4D cells; Ab 0.0213 nM
T3 construct: whole, on cells; also called human SEMA4D recombinant cells
T3 sequence (looked up): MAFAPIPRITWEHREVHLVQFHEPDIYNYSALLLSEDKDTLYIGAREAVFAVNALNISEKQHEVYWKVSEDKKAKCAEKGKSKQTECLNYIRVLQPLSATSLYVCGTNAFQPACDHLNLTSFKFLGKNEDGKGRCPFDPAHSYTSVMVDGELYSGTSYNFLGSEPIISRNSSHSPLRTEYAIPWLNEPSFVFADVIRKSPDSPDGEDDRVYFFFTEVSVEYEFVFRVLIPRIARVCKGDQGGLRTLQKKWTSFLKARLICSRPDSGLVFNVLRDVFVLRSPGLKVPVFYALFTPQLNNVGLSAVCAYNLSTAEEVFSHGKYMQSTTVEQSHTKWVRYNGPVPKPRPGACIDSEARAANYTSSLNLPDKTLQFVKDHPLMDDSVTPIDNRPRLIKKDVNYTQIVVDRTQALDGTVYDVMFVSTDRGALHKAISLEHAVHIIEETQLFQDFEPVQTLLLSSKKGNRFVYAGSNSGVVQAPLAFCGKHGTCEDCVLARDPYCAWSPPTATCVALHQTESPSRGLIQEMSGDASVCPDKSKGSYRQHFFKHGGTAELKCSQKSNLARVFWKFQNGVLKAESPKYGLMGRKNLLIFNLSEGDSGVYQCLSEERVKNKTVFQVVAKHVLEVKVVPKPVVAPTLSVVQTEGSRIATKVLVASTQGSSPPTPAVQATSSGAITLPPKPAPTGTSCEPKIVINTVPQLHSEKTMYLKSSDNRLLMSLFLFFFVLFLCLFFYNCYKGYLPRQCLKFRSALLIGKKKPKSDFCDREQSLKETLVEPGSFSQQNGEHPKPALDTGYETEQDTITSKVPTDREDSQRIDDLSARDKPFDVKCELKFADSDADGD
Experimental: (§2) The medium was aspirated, the cells were washed once with PBS buffer (purchased from Invitrogen), and then treated with cell dissociation fluid (TrypLE™ Express Enzyme, purchased from Life technology), and the cells were collected. After the cells counted, the cells were washed once with PBS phosphate buffer, and diluted to 3×10⁶ cells per milliliter, and added to the 96-well FACS reaction plate as 100 μL per well. 2% (w/w) fetal calf serum was added to PBS phosphate buffer as FACS buffer, with which the cells were washed once by centrifugation at 2000 rpm 4° C. 100 μL of diluted and purified leading antibodies was added to each well and the plate was incubated for 1 hour on ice. […] Cells were washed 2 times by centrifugation with FACS buffer. The cells were suspended with 200 μL of FACS buffer, and FACS (FACS Verse, purchased from BD) was used to detect and analyze the results.

[5] = biological target: T3, human SEMA4D, full length, on CHO-K1 …; assay: FACS, CHO-K1 hSEMA4D cells; Ab 0.107 nM
Experimental: as §2

[6] = biological target: T3, human SEMA4D, full length, on CHO-K1 …; assay: FACS, CHO-K1 hSEMA4D cells; Ab 0.00427 nM
Experimental: as §2

[7] = biological target: T2, monkey SEMA4D, full length, on CHO-K1 …; assay: FACS, CHO-K1 cSEMA4D cells; Ab 0.534 nM
Experimental: as §1

[8] = biological target: T3, human SEMA4D, full length, on CHO-K1 …; assay: FACS, CHO-K1 hSEMA4D cells; Ab 0.534 nM
Experimental: as §2

MFI [1]: 30.8
MFI [2]: 31.4
MFI [3]: 422
MFI [4]: 248
MFI [5]: 906
MFI [6]: 87.3
MFI [7]: 2980
MFI [8]: 3140
B4: 31C11G2 (antibody, V domains shown)
VH: EVQLQQSGAELVRPGASVKLSCTASGFNIKDEYIHWVKQRPEQGLEWIGWIDPANGHTEYASRFQAKATITADTSSNTAYLQLSSLTSEDTAVYYCTTGDYDGFVYWGQGTLVTVST
VL: QIVLTQSPAIMSASPGEKVTIFCSARSSVSYMYWYQQKPGSSPKPWIYRTSNLASGVPARFSGSGSGTSYSLTISSMEAEDAATYYCQHYHTYPYTFGGGTKLEIK
notes: Mouse monoclonal antibody purified from hybridoma supernatant on protein A

MFI [1]: 29.6
MFI [2]: 32.4
MFI [3]: 414
MFI [4]: 225
MFI [5]: 855
MFI [6]: 85.5
MFI [7]: 3490
MFI [8]: 3070
B5: 31G10C5 (antibody, V domains shown)
VH: B4 VH with E32D, T58I, R63N, V105T
VL: B4 VL with F22S
notes: as for B4

MFI [1]: 31.6
MFI [2]: 35.3
MFI [3]: 216
MFI [4]: 173
MFI [5]: 598
MFI [6]: 68.9
MFI [7]: 1690
MFI [8]: 2000
B6: 42B7G2 (antibody, V domains shown)
VH: QVQLQQSGAELARPGASVKLSCKASGYTFTDYGISWVKQRTGQGLEWIGEIYLRNDNSYYNEKFKGKATLTADKSSNTAYMELRSLTSEDSAVYFCARWGDHGNNYEDAMDYWGQGTSVTVSS
VL: DIVLTQSPASLAMSLGKRATISCRASESVSIIGSNLIHWYQQKPGQPPKLLIYHASNLETGVPARFSGSGSRTDFTLTIDPVEEDDVAIYYCLQSRKVPYTFGGGTKLEIK
notes: as for B4

MFI [1]: 30.5
MFI [2]: 31
MFI [3]: 103
MFI [4]: 101
MFI [5]: 308
MFI [6]: 51
MFI [7]: 925
MFI [8]: 1120
B7: 37F11F9 (antibody, V domains shown)
VH: EVQLQQSGPVLVKPGASVKMSCKASGYTFTDYYMNWVKQSHGKSLEWIGLINPYSGGSTFNQKFKAKATLTVDKSSSSAYMDLNSLTSEDSAVYYCARVGDGYYGVTHGMDYWGQGTSVTVSS
VL: DIVMTPSQKFMSTTVGDRVSITCKASQNVGTAVAWYQQKPGQSPTILIYSASNRYTGVPDRFTGSGSGTDFTLTISNMKSEDLADYFCQQYYIYPFTFAAGTKLELK
notes: as for B4

The remaining lines, values behind:

B1: 37C4F7 (antibody, V domains shown)
VH: EFQLQQSGPEVVKPGASVKISCKASGYSFTDYNMNWMKQSKGKSLEWIGVINPNYGTTTYNQNFKGKATLTVDQSSSTAYMQLNSLTSEDSAVYYCARDMYYVYAYYTMDYWGQGTSVTVSS
VL: DVVMTQTPLSLPVSLGDQASISCRSSQSLVHSNGHTYLHWYLQRPGQSPTLLIYKVSNRFSGVPDRFSGSGSGTDFTLKISRVEAEDLGVYFCSQGTHVPWTFGGGTKLEIK
notes: as for B4
MFI [1]: 30.8
MFI [2]: 30
MFI [3]: 79.4
MFI [4]: 76.6
MFI [5]: 210
MFI [6]: 45.4
MFI [7]: 760
MFI [8]: 738

B2: 38H2E3 (antibody, V domains shown)
VH: B1 VH with N52S, N54D, G66D, R98K, Q114H
VL: B1 VL with F67V, W101R
notes: as for B4
MFI [1]: 30.1
MFI [2]: 30
MFI [3]: 69.1
MFI [4]: 78.7
MFI [5]: 215
MFI [6]: 45.4
MFI [7]: 601
MFI [8]: 763

B3: 32C8F10 (antibody, V domains shown)
VH: B4 VH with V105A
VL: B4 VL with F22S
notes: as for B4
MFI [1]: 29.5
MFI [2]: 31.7
MFI [3]: 291
MFI [4]: 218
MFI [5]: 832
MFI [6]: 86.2
MFI [7]: 2930
MFI [8]: 2920
